# Source: US5185323A, “Suppression of megakaryocytopoiesis employing platelet factor 4 antimaturation factor” (Temple University, priority 1988, dated 1993)
# B1: platelet factor 4 (protein, UniProt P02776 32-101, looked up)
# Platelet factor 4: EAEEDGDLQCLCVKTTSQVRPRHITSLEVIKAGPHCPTAQLIATLKNGRKICLDLQAPLYKKIIKKLLES
# notes: Megakaryocyte/platelet-specific α-granule protein purified from outdated human platelets by heparin-agarose chromatography, >95% pure
# Assays:
# Format in all cases: cell-based
# [1] = test system: normal human erythroid colony forming units (CFU-E); assay: Erythroid colony formation (CFU-E) in plasma clot culture (specificity assay); details: concentrations of PF4 which consistently inhibited megakaryocyte colony formation; FIG. 4
# From the text: FIG. 4 graphically illustrates the effect of highly purified platelet factor 4 (PF4) on clonogenicity of normal human erythroid colony forming units (CFU-E) in plasma clot culture in the absence of accessory marrow immunocytes. Isolated bone marrow mononuclear cells (MNC) were depleted of adherent monocyte-macrophages and lymphocytes, as detailed in the Examples. After seven days in culture, plates were harvested and fixed and CFU-E detected by benzidine staining. Results of three separate experiments, each performed in quadruplicate culture plates, are shown. The effect of purified protein on inhibition of erythroid colony formation was tested.
# [2] = test system: normal human megakaryocyte progenitor cells; assay: Megakaryocyte colony formation in plasma clot culture, unseparated marrow MNC (proliferation assay); details: control ~11 colonies
# Method: FIG. 1 graphically illustrates the effect of highly purified platelet factor 4 (PF4) on clonogenicity of normal human megakaryocyte progenitor cells in plasma clot culture. Bone marrow mononuclear cells (MNC) were isolated by density gradient sedimentation and then suspended in the appropriate culture medium, to which was added PF4 in the amounts indicated. The cell suspensions were plated, and cultured for twelve days at 37° C. in a humidified environment containing 5% CO2, and resulting megakaryocyte colonies were then enumerated in situ with an indirect immunofluorescence assay using a polyspecific antiplatelet glycoprotein antiserum as probe. Aggregate results (mean±S.D.) of five separate experiments are shown. Numbers at top of bars indicate p value in comparison to control (CONT.).
# Megakaryocyte colonies were cloned in plasma clot cultures as previously described (e.g., Blood 61: 384-9, 1983). […]
# Megakaryocyte colonies were enumerated by indirect immunofluorescence assay utilizing a rabbit anti-human platelet glycoprotein antiserum as a megakaryocyte probe (ibid.). […] A cluster of three or more intensely fluorescent cells was counted as one colony. […]
# To determine if PF4 could modify megakaryocyte colony formation in vitro, a screen assay was performed by adding various amounts of pure protein to unseparated marrow MNC. […] In the presence of 2.5 μg/ml of PF4, ~7 colonies were counted. […]
# [3] = test system: human megakaryocyte progenitor cells; assay: Megakaryocyte colony formation in co-culture with autologous T lymphocyte subsets
# From the text: (§1) Megakaryocyte colonies were cloned in plasma clot cultures as previously described (e.g., Blood 61: 384-9, 1983). The cell population cultured consisted of either unseparated high density marrow mononuclear cells (MNC), or MNC depleted of adherent monocytemacrophages (MO) and T lymphocytes using methods previously reported (e.g., J. Immunol. 2915-2925, 1987). To provide essential growth factors, all cultures were supplemented with normal human AB serum (30% v/v) derived from the platelet-poor plasma of a single donor.
# (§2) Megakaryocyte colonies were enumerated by indirect immunofluorescence assay utilizing a rabbit anti-human platelet glycoprotein antiserum as a megakaryocyte probe (ibid.). […] A cluster of three or more intensely fluorescent cells was counted as one colony. Unless otherwise stated, all data are reported as the mean± S.D. of colonies enumerated.
# Since the majority of marrow T lymphocytes are of the suppressor type, and PF4 is described in the prior art as inactivating these cells, the results obtained in Examples IA and IB were unexpected. In fact, it was anticipated that colony formation might be increased because of unopposed T helper activity. Putative progenitor cell-T cell-PF4 interactions were accordingly studied. Control target cells, depleted of adherent monocytes and T lymphocytes were cloned in plasma clots under standard conditions (Table 3). Aliquots of these target cells were also cloned in the presence of either CD4^+ helper, or CD8^+ suppressor T cells alone, or T effector cells plus PF4 at two different concentrations, 2.5 and 25 μg/ml.
# [4] = test system: human megakaryocyte progenitor cells; assay: Megakaryocyte colony formation in plasma clot culture, MNC depleted of adherent monocyte-macrophages and T lymphocytes; details: PF4 25 μg/ml; four experiments (FIG. 3)
# From the text: FIG. 3 graphically illustrates the effect of highly purified platelet factor 4 (PF4) on normal human megakaryocyte colony formation in vitro in the absence of accessory marrow immunocytes. Isolated bone marrow mononuclear cells (MNC) were depleted of adherent monocyte-macrophages and lymphocytes and treated as detailed in the Examples. Each line represents the result of a single experiment performed in quadruplicate culture plates. p values in comparison to control are indicated for each experiment.
# as §1
# as §2, with “enumerated. […]” for “enumerated.”
molecule,measurement,setting,value
B1,inhibition of erythroid colony formation units (CFU-E),[1],no inhibition
same,megakaryocyte colonies enumerated,"[2]; PF4 2.5 μg/ml, not significant (p>0.05), aggregate of five experiments",~ 7 colonies per 2×105 MNC plated
same,megakaryocyte colonies enumerated,"[2]; PF4 25 μg/ml, p<0.007, aggregate of five experiments",five
same,dependence of colony suppressive effect on T lymphocytes,[3],indifferent to the presence of T lymphocytes
same,effect on colony formation in presence of CD4+ (helper) cells,[3]; PF4 2.5 μg/ml,unchanged
same,megakaryocyte colonies enumerated (mean ± SEM),"[3]; Study 1, C/T4 2:1 + PF4 2.5 μg/ml, control 7 ± 2, C/T4 alone 11 ± 0",8 ± 1 colonies
same,megakaryocyte colonies enumerated (mean ± SEM),"[3]; Study 1, C/T8 2:1 + PF4 2.5 μg/ml, control 7 ± 2, C/T8 alone 6 ± 1",18 ± 2 colonies
same,megakaryocyte colonies enumerated (mean ± SEM),"[3]; Study 2, C/T4 2:1 + PF4 2.5 μg/ml, control 4 ± 1, C/T4 alone 3 ± 1",5 ± 1 colonies
same,megakaryocyte colonies enumerated (mean ± SEM),"[3]; Study 3, C/T8 2:1 + PF4 2.5 μg/ml, control 11 ± 3",7 ± 2 colonies
same,megakaryocyte colonies enumerated (mean ± SEM),"[3]; Study 3, C/T8 2:1 + PF4 25 μg/ml, control 11 ± 3, p < .05",1 ± 0 colonies
same,megakaryocyte colonies enumerated (mean ± SEM),"[3]; Study 4, C/T4 2:1 + PF4 2.5 μg/ml, control 116 ± 6, C/T4 alone 141 ± 22",122 ± 29 colonies
same,megakaryocyte colonies enumerated (mean ± SEM),"[3]; Study 4, C/T4 2:1 + PF4 25 μg/ml, control 116 ± 6, C/T4 alone 141 ± 22, p < .05",8 ± 1 colonies
same,megakaryocyte colonies enumerated (mean ± SEM),"[3]; Study 4, C/T8 2:1 + PF4 2.5 μg/ml, control 116 ± 6, C/T8 alone 163 ± 13, p < .05",87 ± 15 colonies
same,megakaryocyte colonies enumerated (mean ± SEM),"[3]; Study 4, C/T8 2:1 + PF4 25 μg/ml, control 116 ± 6, C/T8 alone 163 ± 13, p < .05",13 ± 2 colonies
same,megakaryocyte colonies enumerated (mean ± SEM),"[3]; Study 5, C/T4 2:1 + PF4 25 μg/ml, control 33 ± 6, C/T4 alone 39 ± 4, p < .05",3 ± 1 colonies
same,megakaryocyte colonies enumerated (mean ± SEM),"[3]; Study 5, C/T8 2:1 + PF4 2.5 μg/ml, control 33 ± 6",33 ± 4 colonies
same,megakaryocyte colonies enumerated (mean ± SEM),"[3]; Study 5, C/T8 2:1 + PF4 25 μg/ml, control 33 ± 6, p < .05",3 ± 1 colonies
same,effect on colony formation in presence of T cells,[3]; high concentration of PF4,highly significant decrease in colony formation
same,effect on megakaryocyte colony formation,[4],greatly inhibited in each of the experiments
same,mean inhibition of megakaryocyte colony formation,[4],~ 78%
